# Measured values published in patent US20200079833A1 (AstraZeneca / MedImmune, published 2020).
# Starred links: 1 amine or outer side, 2 acyl side, 3 side chain; linkers in the order of their positions; H or OH if unused. Non-standard residues stand in square brackets, D forms with d. Groups on a side chain read outwards from the residue. Primed or numbered codes have the meaning given here. No end group written: not given here. *: point of attachment. Dodecanoyl(12-OPh(4-COOH)) = O=C(O)c1ccc(OCCCCCCCCCCCC(=O)*)cc1; γGlu = O=C(O)[C@H](CCC(=O)[*:2])N[*:1]; Stearoyl = CCCCCCCCCCCCCCCCCC(=O)*; αMeF = C[C@](N)(Cc1ccccc1)C(=O)O; αMeK = C[C@](N)(CCCCN)C(=O)O; Lauroyl = CCCCCCCCCCCC(=O)*; αMeS = C[C@](N)(CO)C(=O)O; PEG2′ = not defined here; Aib = CC(C)(N)C(=O)O; Ahx = NCCCCCC(=O)O
# T1: GLP-1R (INS1e assay) (UniProt P32301 22-463, limits assumed)
# T1 sequence (looked up): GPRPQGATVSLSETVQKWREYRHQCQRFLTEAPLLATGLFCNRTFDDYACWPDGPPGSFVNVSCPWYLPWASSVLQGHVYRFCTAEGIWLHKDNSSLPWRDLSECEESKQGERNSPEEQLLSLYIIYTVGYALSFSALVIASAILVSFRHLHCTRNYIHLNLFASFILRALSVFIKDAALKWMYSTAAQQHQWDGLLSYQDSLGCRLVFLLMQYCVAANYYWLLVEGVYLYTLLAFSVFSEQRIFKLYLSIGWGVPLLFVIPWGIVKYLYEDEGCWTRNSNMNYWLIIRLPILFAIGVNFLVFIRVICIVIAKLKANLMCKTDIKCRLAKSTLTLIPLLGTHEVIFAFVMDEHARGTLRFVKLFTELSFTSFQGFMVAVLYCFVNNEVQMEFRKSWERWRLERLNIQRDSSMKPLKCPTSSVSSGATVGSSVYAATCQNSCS
# B1: SEQ ID NO 166 (peptide)
# peptide: H[Aib]EGS[αMeF]TSDV[αMeS]S[αMeF]LEGEAA[αMeK]E[αMeF]IA[αMeF]VVK([γGlu-γGlu-γGlu-Lauroyl])GG-NH2
# modifications: N-terminus assumed
# SMILES: CCCCCCCCCCCC(=O)N[C@@H](CCC(=O)N[C@@H](CCC(=O)N[C@@H](CCC(=O)NCCCC[C@H](NC(=O)[C@@H](NC(=O)[C@@H](NC(=O)[C@](C)(Cc1ccccc1)NC(=O)[C@H](C)NC(=O)[C@@H](NC(=O)[C@](C)(Cc1ccccc1)NC(=O)[C@H](CCC(=O)O)NC(=O)[C@](C)(CCCCN)NC(=O)[C@H](C)NC(=O)[C@H](C)NC(=O)[C@H](CCC(=O)O)NC(=O)CNC(=O)[C@H](CCC(=O)O)NC(=O)[C@H](CC(C)C)NC(=O)[C@](C)(Cc1ccccc1)NC(=O)[C@H](CO)NC(=O)[C@](C)(CO)NC(=O)[C@@H](NC(=O)[C@H](CC(=O)O)NC(=O)[C@H](CO)NC(=O)[C@@H](NC(=O)[C@](C)(Cc1ccccc1)NC(=O)[C@H](CO)NC(=O)CNC(=O)[C@H](CCC(=O)O)NC(=O)C(C)(C)NC(=O)[C@@H](N)Cc1c[nH]cn1)[C@@H](C)O)C(C)C)[C@@H](C)CC)C(C)C)C(C)C)C(=O)NCC(=O)NCC(N)=O)C(=O)O)C(=O)O)C(=O)O
# B2: SEQ ID NO 137 (peptide)
# peptide: H[Aib]EGS[αMeF]TSDV[αMeS]S[αMeF]LEGEAAK([γGlu-Dodecanoyl(12-OPh(4-COOH))])E[αMeF]IA[αMeF]VV[αMeK]GG-NH2
# modifications: N-terminus assumed
# SMILES: CC[C@H](C)[C@H](NC(=O)[C@](C)(Cc1ccccc1)NC(=O)[C@H](CCC(=O)O)NC(=O)[C@H](CCCCNC(=O)CC[C@H](NC(=O)CCCCCCCCCCCOc1ccc(C(=O)O)cc1)C(=O)O)NC(=O)[C@H](C)NC(=O)[C@H](C)NC(=O)[C@H](CCC(=O)O)NC(=O)CNC(=O)[C@H](CCC(=O)O)NC(=O)[C@H](CC(C)C)NC(=O)[C@](C)(Cc1ccccc1)NC(=O)[C@H](CO)NC(=O)[C@](C)(CO)NC(=O)[C@@H](NC(=O)[C@H](CC(=O)O)NC(=O)[C@H](CO)NC(=O)[C@@H](NC(=O)[C@](C)(Cc1ccccc1)NC(=O)[C@H](CO)NC(=O)CNC(=O)[C@H](CCC(=O)O)NC(=O)C(C)(C)NC(=O)[C@@H](N)Cc1c[nH]cn1)[C@@H](C)O)C(C)C)C(=O)N[C@@H](C)C(=O)N[C@@](C)(Cc1ccccc1)C(=O)N[C@H](C(=O)N[C@H](C(=O)N[C@@](C)(CCCCN)C(=O)NCC(=O)NCC(N)=O)C(C)C)C(C)C
# B3: SEQ ID NO 141 (peptide)
# peptide: H[Aib]EGS[αMeF]TSDV[αMeS]S[αMeF]LEGEAAK([Ahx-Ahx-Dodecanoyl(12-OPh(4-COOH))])E[αMeF]IA[αMeF]VV[αMeK]GG-NH2
# modifications: N-terminus assumed
# SMILES: CC[C@H](C)[C@H](NC(=O)[C@](C)(Cc1ccccc1)NC(=O)[C@H](CCC(=O)O)NC(=O)[C@H](CCCCNC(=O)CCCCCNC(=O)CCCCCNC(=O)CCCCCCCCCCCOc1ccc(C(=O)O)cc1)NC(=O)[C@H](C)NC(=O)[C@H](C)NC(=O)[C@H](CCC(=O)O)NC(=O)CNC(=O)[C@H](CCC(=O)O)NC(=O)[C@H](CC(C)C)NC(=O)[C@](C)(Cc1ccccc1)NC(=O)[C@H](CO)NC(=O)[C@](C)(CO)NC(=O)[C@@H](NC(=O)[C@H](CC(=O)O)NC(=O)[C@H](CO)NC(=O)[C@@H](NC(=O)[C@](C)(Cc1ccccc1)NC(=O)[C@H](CO)NC(=O)CNC(=O)[C@H](CCC(=O)O)NC(=O)C(C)(C)NC(=O)[C@@H](N)Cc1c[nH]cn1)[C@@H](C)O)C(C)C)C(=O)N[C@@H](C)C(=O)N[C@@](C)(Cc1ccccc1)C(=O)N[C@H](C(=O)N[C@H](C(=O)N[C@@](C)(CCCCN)C(=O)NCC(=O)NCC(N)=O)C(C)C)C(C)C
# B4: SEQ ID NO 132 (peptide)
# peptide: H[Aib]EGS[αMeF]TSDV[αMeS]S[αMeF]LEGEAAK([Ahx-Ahx-Lauroyl])E[αMeF]IA[αMeF]VV[αMeK]GG-NH2
# modifications: N-terminus assumed
# SMILES: CCCCCCCCCCCC(=O)NCCCCCC(=O)NCCCCCC(=O)NCCCC[C@H](NC(=O)[C@H](C)NC(=O)[C@H](C)NC(=O)[C@H](CCC(=O)O)NC(=O)CNC(=O)[C@H](CCC(=O)O)NC(=O)[C@H](CC(C)C)NC(=O)[C@](C)(Cc1ccccc1)NC(=O)[C@H](CO)NC(=O)[C@](C)(CO)NC(=O)[C@@H](NC(=O)[C@H](CC(=O)O)NC(=O)[C@H](CO)NC(=O)[C@@H](NC(=O)[C@](C)(Cc1ccccc1)NC(=O)[C@H](CO)NC(=O)CNC(=O)[C@H](CCC(=O)O)NC(=O)C(C)(C)NC(=O)[C@@H](N)Cc1c[nH]cn1)[C@@H](C)O)C(C)C)C(=O)N[C@@H](CCC(=O)O)C(=O)N[C@@](C)(Cc1ccccc1)C(=O)N[C@H](C(=O)N[C@@H](C)C(=O)N[C@@](C)(Cc1ccccc1)C(=O)N[C@H](C(=O)N[C@H](C(=O)N[C@@](C)(CCCCN)C(=O)NCC(=O)NCC(N)=O)C(C)C)C(C)C)[C@@H](C)CC
# B5: SEQ ID NO 140 (peptide)
# peptide: H[Aib]EGS[αMeF]TSDV[αMeS]S[αMeF]LEGEAAK([Ahx-Dodecanoyl(12-OPh(4-COOH))])E[αMeF]IA[αMeF]VV[αMeK]GG-NH2
# modifications: N-terminus assumed
# SMILES: CC[C@H](C)[C@H](NC(=O)[C@](C)(Cc1ccccc1)NC(=O)[C@H](CCC(=O)O)NC(=O)[C@H](CCCCNC(=O)CCCCCNC(=O)CCCCCCCCCCCOc1ccc(C(=O)O)cc1)NC(=O)[C@H](C)NC(=O)[C@H](C)NC(=O)[C@H](CCC(=O)O)NC(=O)CNC(=O)[C@H](CCC(=O)O)NC(=O)[C@H](CC(C)C)NC(=O)[C@](C)(Cc1ccccc1)NC(=O)[C@H](CO)NC(=O)[C@](C)(CO)NC(=O)[C@@H](NC(=O)[C@H](CC(=O)O)NC(=O)[C@H](CO)NC(=O)[C@@H](NC(=O)[C@](C)(Cc1ccccc1)NC(=O)[C@H](CO)NC(=O)CNC(=O)[C@H](CCC(=O)O)NC(=O)C(C)(C)NC(=O)[C@@H](N)Cc1c[nH]cn1)[C@@H](C)O)C(C)C)C(=O)N[C@@H](C)C(=O)N[C@@](C)(Cc1ccccc1)C(=O)N[C@H](C(=O)N[C@H](C(=O)N[C@@](C)(CCCCN)C(=O)NCC(=O)NCC(N)=O)C(C)C)C(C)C
# Target: T1, GLP-1R (INS1e assay)
# Assay: cell-based or functional assay
Binder,INS1e assay EC50 GLP-1 R n1 [pM],INS1e assay EC50 GLP-1 R n2 [pM],INS1e assay EC50 Mean pM GLP-1R [pM]
B1,233,687,460
H[Aib]EGS[αMeF]TSDV[αMeS]K([PEG2′-PEG2′-γGlu-Stearoyl])[αMeF]LEGEAA[αMeK]E[αMeF]IA[αMeF]VV[αMeK]GG-NH2 [SEQ ID NO 117],765,1670,1220
H[Aib]EGS[αMeF]TSDV[αMeS]S[αMeF]LEGEAAK([PEG2′-PEG2′-PEG2′-Stearoyl])E[αMeF]IA[αMeF]VV[αMeK]GG-NH2 [SEQ ID NO 154],32.3,17.1,25
H[Aib]EGS[αMeF]TSDV[αMeS]S[αMeF]LEGEAAK([PEG2′-Dodecanoyl(12-OPh(4-COOH))])E[αMeF]IA[αMeF]VV[αMeK]GG-NH2 [SEQ ID NO 143],45.1,22.7,34
H[Aib]EGS[αMeF]TSDK([PEG2′-PEG2′-γGlu-Stearoyl])[αMeS]S[αMeF]LEGEAA[αMeK]E[αMeF]IA[αMeF]VV[αMeK]GG-NH2 [SEQ ID NO 119],2710,1450,2080
B2,63.7,36.2,50
B3,44.7,36.7,41
H[Aib]EGS[αMeF]TSDV[αMeS]S[αMeF]LEGEAAK([PEG2′-PEG2′-PEG2′-Lauroyl])E[αMeF]IA[αMeF]VV[αMeK]GG-NH2 [SEQ ID NO 136],52.6,21.5,37
B4,129,115,122
H[Aib]EGS[αMeF]TSDV[αMeS]S[αMeF]LEGEAAK([PEG2′-PEG2′-Stearoyl])E[αMeF]IA[αMeF]VV[αMeK]GG-NH2 [SEQ ID NO 153],55,61.2,58
B5,43.2,16.7,30
H[Aib]EGS[αMeF]TSDV[αMeS]S[αMeF]LEGEAAK([PEG2′-PEG2′-Lauroyl])E[αMeF]IA[αMeF]VV[αMeK]GG-NH2 [SEQ ID NO 135],98.6,59.3,79
H[Aib]EGS[αMeF]TSDV[αMeS]S[αMeF]LEGEAAK([PEG2′-Lauroyl])E[αMeF]IA[αMeF]VV[αMeK]GG-NH2 [SEQ ID NO 134],168,77.6,123
